Results on two molecules are retold here after patent publication US20180244785A1 (MERRIMACK PHARMACEUTICALS, published 2018).

The target in one assay is T1, 6His-Fc-FGFR1c (human, UniProt P11362 141-376).
T1 construct: not shown: 6His tag and Fc as named in '6His-Fc-FGFR'
T1 sequence: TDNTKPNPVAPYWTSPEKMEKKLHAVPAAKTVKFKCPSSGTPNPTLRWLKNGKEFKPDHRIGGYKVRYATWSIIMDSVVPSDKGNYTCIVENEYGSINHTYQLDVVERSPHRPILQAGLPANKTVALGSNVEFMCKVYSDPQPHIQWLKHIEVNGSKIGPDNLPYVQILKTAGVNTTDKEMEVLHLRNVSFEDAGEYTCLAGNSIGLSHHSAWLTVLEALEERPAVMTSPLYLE
Kind of assay: competition ELISA, blocks 6His-Fc-FGFR1c binding to coated FGF2. How it is done: (§1) ELISA plates were coated with 50 ug/ml Heparin Sulfate (HSPG) (Sigma Aldrich) and incubated overnight at room temperature. Plates were then washed extensively with PBS containing 0.05% v/v Tween20 (PBST). Plates were then blocked with 2.5% BSA in PBST for one hour and washed extensively as before. 40-60 μL of FGF1 or FGF2 was then added to each well at 40 μg/ml and allowed to bind at room temperature for 2 hours. Plates were then washed extensively with PBST as before. Stock solutions of each 6His-Fc-FGFR (FGFR1-4) were prepared at 500 ng/ml in 2% v/v BSA-PBST and each antibody was prepared as a 2×-dilution series in 2% v/v BSA-PBST. Antibodies dilution series and 6His-Fc-FGFR1-4 were diluted in a 1:1 fashion and immediately added to the relative wells of the plate and allowed to bind for 2 hours at room temperature. Plates were washed extensively as before with PBST and the remaining fraction of bound 6His-Fc-FGFR was detected using a polyclonal-anti-His-6-HRP conjugated antibody (Abcam) for one hour at room temperature. After extensive washing with PBST, 50 μl of Pierce Chemiluminescent substrate (Thermo Fisher Scientific, Rockford, USA) was added and plates were measured on an Envision plate reader (Perkin Elmer). Raw data was background corrected and plotted using Prism software. […]
In general terms: An ELISA detects its analyte on a solid surface through an enzyme-linked reagent.

The target of a further assay is T2, 6His-Fc-FGFR4 (human, UniProt P22455 144-369).
T2 construct: not shown: 6His tag and Fc as named in '6His-Fc-FGFR'
T2 sequence: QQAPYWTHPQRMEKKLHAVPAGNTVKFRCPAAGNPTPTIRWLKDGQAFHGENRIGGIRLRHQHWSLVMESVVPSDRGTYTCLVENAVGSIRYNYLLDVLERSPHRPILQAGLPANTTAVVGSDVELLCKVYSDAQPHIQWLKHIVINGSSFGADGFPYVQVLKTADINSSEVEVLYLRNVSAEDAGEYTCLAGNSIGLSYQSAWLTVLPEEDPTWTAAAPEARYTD
Kind of assay: competition ELISA, blocks 6His-Fc-FGFR4 binding to coated FGF2. How it is done: as §1

Assay [1] has as its target soluble FGFR2c receptor protein (human, UniProt P21802 148-377). Kind of assay: BLI Octet RED96, antibody on anti-hIgG Fc tip. As for the experimental part: (§2) Briefly, the Pall ForteBio Octet RED96 Bio-Layer Interferometry system was used to determine the specificity of anti-FGFR antibodies for FGFR1c, FGFR2c, FGFR3c, and FGFR4. The antibodies and soluble receptor proteins were prepared in PBS at a concentration of 300 nM. First, the candidate antibodies were immobilized on the surface of anti-human IgG Fc biosensor tips for 120 seconds. After immobilization, the biosensors were dipped in PBS solution for 60 seconds (baseline step) to assess assay drift, and determine loading level of antibodies. The baseline step was followed by an association step of 300 seconds wherein the binding interaction between the immobilized antibodies and soluble receptors was measured. Following the association step, the biosensors were dipped into PBS buffer for 600 seconds to measure the dissociation of the bound receptor proteins from the immobilized antibodies. Each binding response was measured and reported real time on a sensorgram trace. For data analysis, a simple 1:1 binding model was used which measures the rate of complex formation of one immobilized antibody and one soluble receptor protein.
Background: Biolayer interferometry detects binding as a change in optical thickness at a sensor tip.

Assay [2] concerns the target T3, soluble FGFR1c receptor protein (human, UniProt P11362 141-376).
T3 sequence: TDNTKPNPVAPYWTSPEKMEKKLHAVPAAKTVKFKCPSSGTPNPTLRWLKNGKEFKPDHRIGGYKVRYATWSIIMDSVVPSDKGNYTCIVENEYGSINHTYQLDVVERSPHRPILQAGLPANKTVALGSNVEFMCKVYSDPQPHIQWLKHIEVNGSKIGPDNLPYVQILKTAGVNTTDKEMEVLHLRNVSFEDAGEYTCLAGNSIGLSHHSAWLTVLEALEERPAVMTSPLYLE
Kind of assay: BLI Octet RED96, antibody on anti-hIgG Fc tip. How it is done:
as §2

Assay [3] has as its target T4, soluble FGFR3c receptor protein (human, UniProt P22607 141-372).
T4 sequence: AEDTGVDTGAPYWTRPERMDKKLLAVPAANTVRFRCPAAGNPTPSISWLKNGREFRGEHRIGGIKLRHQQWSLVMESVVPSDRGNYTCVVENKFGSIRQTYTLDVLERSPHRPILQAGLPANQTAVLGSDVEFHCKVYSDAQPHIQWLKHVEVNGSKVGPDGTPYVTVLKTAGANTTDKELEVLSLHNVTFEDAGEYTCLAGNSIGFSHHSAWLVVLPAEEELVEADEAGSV
Kind of assay: BLI Octet RED96, antibody on anti-hIgG Fc tip. As for the experimental part:
as §2

Assay [4] addresses T5, soluble FGFR4 receptor protein (human, UniProt P22455 144-369).
T5 sequence: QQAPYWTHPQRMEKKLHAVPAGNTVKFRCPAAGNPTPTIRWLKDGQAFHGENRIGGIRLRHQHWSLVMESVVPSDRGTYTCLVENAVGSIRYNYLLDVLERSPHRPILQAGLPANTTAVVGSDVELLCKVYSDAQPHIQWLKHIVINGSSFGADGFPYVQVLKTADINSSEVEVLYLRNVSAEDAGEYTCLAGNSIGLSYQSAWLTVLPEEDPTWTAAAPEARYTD
Kind of assay: BLI Octet RED96, antibody on anti-hIgG Fc tip. How it is done: as §2

Another assay concerns the target FGFR1 on tumour cells (UniProt P11362 22-822). Kind of assay: cell-based or functional assay.
For assay [5], the target named is T6, recombinant human FGFR2c Fc fusion (human, UniProt P21802 148-377).
T6 construct: also called FGFR2IIIc; not shown: Fc part of the FGFR-Fc fusion
Kind of assay: solid phase ELISA on coated FGFR-Fc. How it is done: (§3) For the ELISA assay, the ability of each mAb to cross react with the […] FGF receptors was tested across a concentration curve in order to determine the relative binding across FGFR1-4. FGFR2IIIb was used as a negative control. Black 384-well Maxisorp plates were coated overnight with FGFR-Fc fusions in PBS to 1 ug/ml before washing and blocking with 75 ul/well Pierce Protein Free (PBS) Blocking Buffer for 1 hour at RT. Antibody dilutions were prepared freshly in 1% BSA- PBS+0.05% Tween20 and 25 ul of each antibody was added to wells in duplicate. Plates were incubated at RT for 2 hours, followed by addition of detection antibody at 50 ng/ml in 1% BSA PBS, 0.05% Tween20. ECL substrate (Pierce) was added and plates were read on the EnVision plate reader.

Assay [6] addresses T7, recombinant human FGFR4 Fc fusion (human, UniProt P22455 144-369).
T7 construct: 19 used; also called FGFR4c; not shown: Fc part of the FGFR-Fc fusion
T7 sequence: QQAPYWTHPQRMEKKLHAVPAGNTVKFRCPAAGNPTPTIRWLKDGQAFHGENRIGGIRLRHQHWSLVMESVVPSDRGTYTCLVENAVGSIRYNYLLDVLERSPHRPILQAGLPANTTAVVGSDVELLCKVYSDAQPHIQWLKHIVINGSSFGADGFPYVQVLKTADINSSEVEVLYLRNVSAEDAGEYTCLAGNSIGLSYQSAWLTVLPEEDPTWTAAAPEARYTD
Kind of assay: solid phase ELISA on coated FGFR-Fc. How it is done: as §3

In assay [7] the target is T8, recombinant human FGFR3c Fc fusion (human, UniProt P22607 141-372).
T8 construct: also called FGFR3IIIc; not shown: Fc part of the FGFR-Fc fusion
T8 sequence: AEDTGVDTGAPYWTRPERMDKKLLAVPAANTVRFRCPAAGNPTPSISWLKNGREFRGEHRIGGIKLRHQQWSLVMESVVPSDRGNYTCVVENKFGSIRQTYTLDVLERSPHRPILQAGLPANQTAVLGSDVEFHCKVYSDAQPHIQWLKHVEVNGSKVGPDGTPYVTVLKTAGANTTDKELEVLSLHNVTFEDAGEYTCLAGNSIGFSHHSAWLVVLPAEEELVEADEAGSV
Kind of assay: solid phase ELISA on coated FGFR-Fc. As for the experimental part:
as §3

Assay [8] addresses T9, recombinant human FGFR1c Fc fusion (human, UniProt P11362 141-376).
T9 construct: also called FGFR1IIIc; not shown: Fc part of the FGFR-Fc fusion
T9 sequence: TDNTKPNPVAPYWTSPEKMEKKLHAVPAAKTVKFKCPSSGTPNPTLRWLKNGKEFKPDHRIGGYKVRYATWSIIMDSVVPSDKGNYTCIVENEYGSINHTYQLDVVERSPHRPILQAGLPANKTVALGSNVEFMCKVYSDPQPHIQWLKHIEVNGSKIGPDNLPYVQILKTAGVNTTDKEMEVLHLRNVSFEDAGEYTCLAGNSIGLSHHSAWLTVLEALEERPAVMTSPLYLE
Kind of assay: solid phase ELISA on coated FGFR-Fc. As for the experimental part:
as §3

Chain of soluble FGFR2c receptor protein (P21802 148-377): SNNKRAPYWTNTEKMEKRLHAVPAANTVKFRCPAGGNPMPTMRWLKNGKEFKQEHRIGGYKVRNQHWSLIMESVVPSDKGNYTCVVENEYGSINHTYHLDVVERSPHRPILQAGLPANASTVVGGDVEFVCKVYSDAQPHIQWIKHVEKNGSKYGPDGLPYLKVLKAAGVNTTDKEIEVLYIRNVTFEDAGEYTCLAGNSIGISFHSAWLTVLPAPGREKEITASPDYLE
T6 sequence (P21802 148-377): as above
Chain of FGFR1 on tumour cells (P11362 22-822): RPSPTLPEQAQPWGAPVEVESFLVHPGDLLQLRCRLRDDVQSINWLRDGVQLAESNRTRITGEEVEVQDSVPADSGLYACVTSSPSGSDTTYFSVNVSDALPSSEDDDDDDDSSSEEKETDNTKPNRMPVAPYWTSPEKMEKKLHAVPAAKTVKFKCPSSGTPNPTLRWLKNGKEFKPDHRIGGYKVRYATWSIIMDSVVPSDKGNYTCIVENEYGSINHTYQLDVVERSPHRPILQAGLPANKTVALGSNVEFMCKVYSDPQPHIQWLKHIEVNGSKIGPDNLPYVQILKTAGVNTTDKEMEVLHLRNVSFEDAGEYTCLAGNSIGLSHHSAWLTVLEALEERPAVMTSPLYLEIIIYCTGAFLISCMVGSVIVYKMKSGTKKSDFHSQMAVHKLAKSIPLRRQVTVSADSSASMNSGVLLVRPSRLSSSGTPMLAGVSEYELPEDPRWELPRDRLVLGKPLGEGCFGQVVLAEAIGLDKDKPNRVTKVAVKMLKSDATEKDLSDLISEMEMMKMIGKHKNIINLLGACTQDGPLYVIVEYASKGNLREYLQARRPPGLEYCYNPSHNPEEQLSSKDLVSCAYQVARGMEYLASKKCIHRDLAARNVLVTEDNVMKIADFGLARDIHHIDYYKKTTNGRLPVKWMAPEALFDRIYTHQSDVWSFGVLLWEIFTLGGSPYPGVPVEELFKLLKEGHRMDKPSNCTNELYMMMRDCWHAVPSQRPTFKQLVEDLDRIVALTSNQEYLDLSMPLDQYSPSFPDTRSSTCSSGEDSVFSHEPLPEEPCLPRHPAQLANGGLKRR

B1: Ab90 (antibody, human IgG2, kappa, V domains shown)
VH: EVQLLESGGGVVQPGRSLRLSCAASGFTFSSYAMHWVRQAPGKGLEWVAVISYDGSNKYYADSVKGRFTISRDNSKNTLSLQMNSLRVEDTAIYYCVRGAGRGYPYGPDGFDIWGQGTMVTVSS
VL: DIVMTQTPLSLSVTPGQPASISCTSSRSLLHSDGKTYVYWYVQKSGQPPQLLIYELSNRFSGVPDRFSGSGSRTDFTLKISRVEAEDVGVYYCMQYVEVPLTFGGGTKVEIKR
notes: format in the assays not spelled out
For the molecule B1, the IC50 with 6His-Fc-FGFR1c turned out to be 4.15 nM; with 6His-Fc-FGFR4, 7.38 nM. The Kd in assay [1] was found to be 4.62 nM; in assay [2] it was 12 nM; in [3] it was 11.6 nM; in [4] it was 6.69 nM. Further, the koff turned out to be 0.0011 s⁻¹ in assay [1], 0.00116 s⁻¹ in [2], 0.0015 s⁻¹ in assay [3] and 0.000887 s⁻¹ in assay [4]. For the same molecule, the kon is 218000 M⁻¹ s⁻¹ in assay [1], 85100 M⁻¹ s⁻¹ in assay [2], 126000 M⁻¹ s⁻¹ in assay [3] and 112000 M⁻¹ s⁻¹ in [4]. Moreover, the “IC50 of pERK inhibition (AlphaScreen SureFire) in NCI-H1581 cells” value with FGFR1 on tumour cells was found to be 0.715 nM. The EC50 in assay [5] amounted to 0.036 nM; in assay [6], 1.26 nM; in assay [7], 0.171 nM; in assay [8], 0.013 nM.

B2: Ab19 (antibody, human IgG2, kappa, V domains shown)
VH: EVQLLESGGGVVQPGRSLRLSCAASGFTFSSYAMHWVRQAPGKGLEWVAVISYDGSNKYYADSVKGRFTISRDNSKNTLSLQMNSLRVEDTAIYYCVRGAGRGFTLGPDGFDIWGQGTMVTVSS
VL: DIVMTQTPLSLSVTPGQPASISCKSSRSLLHSDGKTYVYWYVQKSGQPPQLLIYELSNRFSGVPDRFSGSGSRTDFTLKISRVEAEDVGVYYCMQYIEAPLTFGGGTKVEIKR
notes: as for B1
With B2, the IC50 was 2.03 nM with 6His-Fc-FGFR1c and 11.8 nM in the assay with 6His-Fc-FGFR4. Further, the Kd in assay [1] stood at 6.61 nM; in assay [2], 8.85 nM; in assay [3] it was 6.29 nM; in assay [4], 8.63 nM. Besides, the koff was 0.00167 s⁻¹ in assay [1], 0.000967 s⁻¹ in assay [2], 0.000983 s⁻¹ in assay [3] and 0.0012 s⁻¹ in assay [4]. In addition, the kon in assay [1] worked out at 252000 M⁻¹ s⁻¹; in assay [2], 91600 M⁻¹ s⁻¹; in assay [3] it was 151000 M⁻¹ s⁻¹; in assay [4], 125000 M⁻¹ s⁻¹. For the same molecule, in the assay with FGFR1 on tumour cells, the “IC50 of pERK inhibition (AlphaScreen SureFire) in NCI-H1581 cells” value was 1.01 nM. In addition, the EC50 in [5] was 0.0127 nM; in assay [6] it was 38.2 nM; in [7] it was 0.0745 nM; in [8], 0.00674 nM.

By IC50 is commonly meant the concentration that inhibits the measured activity by half. Lower therefore signals greater potency. The Kd is the constant that tells how readily two partners part at equilibrium. The low end stands for a tighter complex, the high end for a looser complex. For orientation: koff means the rate constant with which the complex falls apart. For orientation: kon means the second-order rate constant of association. The EC50 is the concentration at which the effect is half-maximal.
